For experiment [1], the target named is T1, integrin αVβ3 (human), P06756.
T1 chain 1: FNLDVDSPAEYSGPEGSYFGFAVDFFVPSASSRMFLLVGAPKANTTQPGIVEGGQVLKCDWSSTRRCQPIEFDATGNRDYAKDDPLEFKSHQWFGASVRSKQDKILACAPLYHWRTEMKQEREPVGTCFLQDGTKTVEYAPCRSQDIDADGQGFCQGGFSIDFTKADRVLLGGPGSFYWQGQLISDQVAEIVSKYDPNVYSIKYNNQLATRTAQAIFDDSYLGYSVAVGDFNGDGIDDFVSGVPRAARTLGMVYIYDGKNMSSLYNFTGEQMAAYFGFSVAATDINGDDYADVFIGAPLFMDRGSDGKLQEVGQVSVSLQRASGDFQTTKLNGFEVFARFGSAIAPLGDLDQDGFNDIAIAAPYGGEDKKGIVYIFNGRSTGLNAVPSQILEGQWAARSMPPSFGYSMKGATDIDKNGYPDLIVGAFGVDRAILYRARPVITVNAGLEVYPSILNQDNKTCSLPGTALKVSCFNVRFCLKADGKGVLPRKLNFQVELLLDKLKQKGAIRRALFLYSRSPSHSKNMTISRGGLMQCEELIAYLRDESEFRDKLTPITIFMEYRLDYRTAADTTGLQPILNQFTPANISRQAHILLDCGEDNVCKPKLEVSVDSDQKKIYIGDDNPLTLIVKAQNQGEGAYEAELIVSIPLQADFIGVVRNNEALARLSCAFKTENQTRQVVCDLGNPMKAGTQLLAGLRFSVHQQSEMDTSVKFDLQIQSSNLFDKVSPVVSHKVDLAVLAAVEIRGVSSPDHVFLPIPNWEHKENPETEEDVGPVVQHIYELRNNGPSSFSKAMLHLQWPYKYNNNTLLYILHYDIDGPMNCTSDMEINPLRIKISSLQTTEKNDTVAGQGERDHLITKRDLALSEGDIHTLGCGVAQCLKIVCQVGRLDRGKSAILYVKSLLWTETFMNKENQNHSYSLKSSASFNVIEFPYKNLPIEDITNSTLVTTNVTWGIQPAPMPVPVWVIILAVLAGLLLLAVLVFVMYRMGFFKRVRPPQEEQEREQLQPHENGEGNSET
T1 chain 2: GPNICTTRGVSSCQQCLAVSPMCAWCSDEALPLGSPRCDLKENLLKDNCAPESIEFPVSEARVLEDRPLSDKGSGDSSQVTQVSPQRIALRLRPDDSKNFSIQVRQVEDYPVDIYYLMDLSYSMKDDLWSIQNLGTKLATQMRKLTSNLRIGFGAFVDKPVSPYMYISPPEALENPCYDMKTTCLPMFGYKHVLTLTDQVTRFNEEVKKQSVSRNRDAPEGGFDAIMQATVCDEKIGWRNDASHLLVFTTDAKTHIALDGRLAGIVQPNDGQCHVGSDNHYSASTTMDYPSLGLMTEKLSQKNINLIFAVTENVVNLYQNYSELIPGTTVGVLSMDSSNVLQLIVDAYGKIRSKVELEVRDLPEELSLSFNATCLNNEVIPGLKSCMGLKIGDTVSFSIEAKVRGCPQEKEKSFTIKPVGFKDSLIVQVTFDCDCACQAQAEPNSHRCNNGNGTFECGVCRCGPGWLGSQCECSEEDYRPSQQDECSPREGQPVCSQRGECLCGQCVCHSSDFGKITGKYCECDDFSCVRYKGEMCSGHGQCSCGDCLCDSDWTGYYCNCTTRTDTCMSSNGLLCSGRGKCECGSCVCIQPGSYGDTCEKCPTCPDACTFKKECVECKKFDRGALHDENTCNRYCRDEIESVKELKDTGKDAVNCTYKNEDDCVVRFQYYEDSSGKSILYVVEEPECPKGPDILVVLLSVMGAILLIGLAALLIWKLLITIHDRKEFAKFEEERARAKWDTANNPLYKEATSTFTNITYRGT
Kind of experiment: SPR (BIAcore). Background: Surface plasmon resonance follows binding to a sensor surface in real time, without labels.

The target is the same in experiment [2]. Kind of experiment: SPR (BIAcore), ratio of Kd.
Experiment [3] shares this target. Kind of experiment: SPR (BIAcore), Fab over immobilized αVβ3.
For the next experiment, the target named is T2, integrin αVβ5 (human, UniProt P06756 31-1048; P18084 24-799).
T2 construct: mature
T2 sequence (P18084 24-799, chain 2 of 2, one chain of several): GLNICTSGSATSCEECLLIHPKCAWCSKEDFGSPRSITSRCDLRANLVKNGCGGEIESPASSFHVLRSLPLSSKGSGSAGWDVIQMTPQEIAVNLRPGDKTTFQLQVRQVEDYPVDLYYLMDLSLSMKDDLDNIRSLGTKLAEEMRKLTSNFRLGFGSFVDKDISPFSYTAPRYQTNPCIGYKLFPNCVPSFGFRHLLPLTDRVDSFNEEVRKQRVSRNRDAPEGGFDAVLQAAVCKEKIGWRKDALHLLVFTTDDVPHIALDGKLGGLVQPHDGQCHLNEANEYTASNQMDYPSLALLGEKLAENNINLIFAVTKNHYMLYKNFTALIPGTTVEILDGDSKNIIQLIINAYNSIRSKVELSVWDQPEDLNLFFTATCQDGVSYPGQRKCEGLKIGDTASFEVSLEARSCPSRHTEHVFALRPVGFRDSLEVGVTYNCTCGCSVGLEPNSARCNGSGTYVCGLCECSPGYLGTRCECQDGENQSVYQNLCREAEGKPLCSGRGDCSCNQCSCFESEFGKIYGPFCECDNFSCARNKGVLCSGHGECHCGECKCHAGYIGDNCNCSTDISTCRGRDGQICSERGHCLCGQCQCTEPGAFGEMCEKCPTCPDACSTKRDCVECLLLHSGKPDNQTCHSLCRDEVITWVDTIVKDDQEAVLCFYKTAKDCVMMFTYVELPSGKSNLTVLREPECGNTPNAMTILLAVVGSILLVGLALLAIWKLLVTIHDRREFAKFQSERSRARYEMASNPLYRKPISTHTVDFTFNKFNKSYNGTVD
Briefly: ELISA on coated integrin, detection with goat anti-human IgG alkaline phosphatase. For orientation: An ELISA detects its analyte on a solid surface through an enzyme-linked reagent.

Experiment [4] addresses T3, integrin αVβ3 (human, UniProt P06756 31-1048; P05106 27-788).
T3 construct: mature; biotinylated in capture lift and capture ELISA; also on M21 melanoma cells in some assays; also called vitronectin receptor; αVβ3 receptor
Briefly: ELISA screen of the position 49 library (target printed αvβ5 here, αvβ3 in paragraph 179).

In experiment [5] the target is T3, integrin αVβ3. Briefly: inhibition of binding of 0.1 µg/ml biotinylated fibrinogen to immobilized αVβ3, 3 h at 37 °C, detection with NeutrAvidin alkaline phosphatase.
For experiment [6], the target named is T3, integrin αVβ3. Kind of experiment: SPR (BIAcore).

Residue numbers refer to the chain shown, from its start. Bounds are passed on as bounds.

Description for integrin αVβ5: Specifically, binding specificity was assessed by measuring binding to αIIbβ₃, the major integrin expressed on platelets, and to αVβ₅ an integrin found prevalent on endothelial cells and connective tissue cell types.
Antibody binding activity was assessed by ELISA using a goat anti-human IgG-alkaline phosphatase conjugate.

B1: LM609 grafted antibody combinatorial clone V357D (Fab)
chain 1: QVQLVESGGGVVQPGRSLRLSCAASGFTFSSYDMSWVRQAPGKGLEWVAKVSSGGGSTYYLDTVQGRFTISRDNSKNTLYLQMNSLRAEDTAVYYCARHNYGSFADWGQGTTVTVSS
chain 2: EIVLTQSPATLSLSPGERATLSCQASQSISNFLHWYQQRPGQAPRLLIRYRSQSISGIPARFSGSGSGTDFTLTISSLEPEDFAVYYCQQSGSWPHTFGGGTKVEIK
modifications: not checked
One may read the Kd as a measure of binding affinity in units of concentration. Low readings indicate a tighter complex, high ones a looser complex. Usually koff stands for the rate constant with which the complex falls apart. The low end stands for a long-lived complex, the high end for a short-lived complex. As a reminder, the kon is the rate constant with which the complex forms. Read a low kon as slow association. B1 showed a fold slower dissociation rate in experiment [1] greater than 10 fold. The fold enhanced affinity over parent LM609 grafted antibody in experiment [2] is greater than 50 fold. In experiment [3], this molecule yielded a Kd of 0.5 nM, an off-rate constant (koff) of 0.00014 s⁻¹ and a kon of 279000 M⁻¹ s⁻¹.

B2: Vitaxin (antibody, V domains shown)
VH: B1 chain 1 with D106Y
VL: B1 chain 2 with F32H, R49K
notes: also called huLM609M13 1135-4; grafted LM609
Consider B2, for which, in the experiment with integrin αVβ5, the binding result is recorded as “no binding (tested: about 2000 ng/ml)”.

B3: LM609 grafted antibody clone with Met at position 49 of the light chain (Fab, V domains shown)
VH: B1 chain 1 with D106Y
VL: B1 chain 2 with F32H, R49M
notes: From the library of 19 non-donor residues at light chain position 49
For the molecule B3, the binding result with integrin αVβ3 [4] is on record as “binds”.

B4: LM609 grafted antibody combinatorial clone C59 (Fab, V domains shown)
VH: B1 chain 1 with L61P
VL: B1 chain 2
notes: Fab
Take B4: the “IC50 (read off the curve)” value in the experiment with integrin αVβ3 [5] is roughly 0.06 µg/mL. The “fold slower dissociation rate” value with integrin αVβ3 [6] was greater than 10 fold.

Source of the values: US20030166872A1 (APPLIED MOLECULAR EVOLUTION, published 2003).
